Experimental data: the supplement of paper PMC7877785
± gives the uncertainty stated by the source.

Assay: self-splicing fitness, log relative to wild type (ln ratio); higher = more splicing; Tetrahymena group I intron in knt gene, E. coli kanamycin selection, DiMSum; sequences stand for … in CUCUCU…GGAGGGAAAAGUUAUCAGGCAUGCACCUGGUAGCUAGUCUUUAAACCAAUAGAUUGCAUCGGUUUAAAAGGCAAGACCGUCAAAUUGCGGGAAAGGGGUCAACAGCCGUUCAGUACCAAGUCUCAGGGGAAACUUUGAGAUGGCCUUGCAAAGGGUAUGGUAAUAAGCUGACGGACAUGGUCCUAACCACGCAGCCAAGUCCUAAGUCAACAGAUCUUCUGUUGAUAUGGAUGCAGUUCACAGACUAAAUGUCGGUCGGGGAAGAUGUAUUCUUCUCAUAAGAUAUAGUCGGACCUCUCCUUAAUGGGAGCUAGCGGAUGAAGUGAUGCAACACUGGAGCCGCUGGGAACUAAUUUGUAUGCGAAAGUAUAUUGAUUAGUUUUGGAGUACUCGUGGUCG
Procedure, shortened: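 Fitness was computed with DiMSum as the error-weighted combination of replicate fold changes, kanamycin versus none, each normalised to wild type. The library randomised all eight intron nucleotides of the P1ex region, with the intron placed in the knt kanamycin-resistance gene on pET-22b(+) in E. coli BL21(DE3). Six replicate transformations were grown overnight at 37°C or 30°C on LB agar with or without 25 μg/mL kanamycin, plus 100 μg/mL carbenicillin, 50 μM IPTG and 0.2% rhamnose. Pooled colonies were amplicon-sequenced on an Illumina HiSeq 2500.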

| Sequence | self-splicing fitness (ln) (30 °C) | self-splicing fitness (ln) (37 °C) |
| --- | --- | --- |
| UUUCAGCAAUAUUACGUAAG | -0.33 ± 0.087 | 0.394 ± 0.13 |
| UUUCAGCAAUAUUACGUCAA | -1.19 ± 0.1 | -0.056 ± 0.097 |
| UUUCAGCAAUAUUACGUCAC | -3.13 ± 0.43 | -2.86 ± 0.35 |
| UUUCAGCAAUAUUACGUGUC | -3.73 ± 0.18 | -2.04 ± 0.15 |
| UUUCAGCAAUAUUACGUUUA | -1.34 ± 0.11 | -0.334 ± 0.13 |
| UUUGAGCAAUAUUACGAAUU | -2.47 ± 0.23 | -2.01 ± 0.3 |
| UUUGAGCAAUAUUACGACUC | -2.58 ± 0.44 | -2.37 ± 0.41 |
| UUUGAGCAAUAUUACGAGGA | -3.62 ± 0.28 | -3.55 ± 0.46 |
| UUUGAGCAAUAUUACGAUGU | -3.05 ± 0.3 | -2.34 ± 0.39 |
| UUUGAGCAAUAUUACGCCGG | -2.04 ± 0.35 | 0.228 ± 0.38 |
| UUUGAGCAAUAUUACGCCUG | -2.85 ± 0.27 | -1.21 ± 0.38 |
| UUUGAGCAAUAUUACGCUAA | -1.08 ± 0.41 |  |
| UUUGAGCAAUAUUACGCUUC | -2.18 ± 0.31 | -2.53 ± 0.44 |
| UUUGAGCAAUAUUACGCUUU |  | -1.59 ± 0.22 |
| UUUGAGCAAUAUUACGGCAG | -1.6 ± 0.17 | -1.56 ± 0.21 |
| UUUGAGCAAUAUUACGGGAG | -3.55 ± 0.28 | -1.99 ± 0.19 |
| UUUGAGCAAUAUUACGGUGC | -2.74 ± 0.47 | -2.2 ± 0.33 |
| UUUGAGCAAUAUUACGUGAA | -1.97 ± 0.17 | -1.82 ± 0.17 |
| UUUGAGCAAUAUUACGUUCU | -3.55 ± 0.32 | -2.58 ± 0.25 |

| Sequence | self-splicing fitness (ln) (30 °C) | self-splicing fitness (ln) (37 °C) |
| --- | --- | --- |
| UUUUAGCAAUAUUACGAAAA | -1.13 ± 0.17 | -0.0479 ± 0.18 |
| UUUUAGCAAUAUUACGACAA | -0.409 ± 0.15 | -0.125 ± 0.17 |
| UUUUAGCAAUAUUACGAUUA | -0.349 ± 0.16 | 0.0391 ± 0.13 |
| UUUUAGCAAUAUUACGCACA | -0.201 ± 0.21 | -0.107 ± 0.19 |
| UUUUAGCAAUAUUACGCAUA | -1.52 ± 0.27 | -0.671 ± 0.21 |
| UUUUAGCAAUAUUACGCCGA | -1.15 ± 0.29 | -0.282 ± 0.32 |
| UUUUAGCAAUAUUACGCGGG | -0.691 ± 0.17 | -0.801 ± 0.17 |
| UUUUAGCAAUAUUACGCUAC |  | -2.79 ± 0.31 |
| UUUUAGCAAUAUUACGCUGG | -3.74 ± 0.39 | -2.88 ± 0.44 |
| UUUUAGCAAUAUUACGGAAU |  | -2.48 ± 0.4 |
| UUUUAGCAAUAUUACGGACC | -2.44 ± 0.4 | -0.175 ± 0.33 |
| UUUUAGCAAUAUUACGGAUA | -1.07 ± 0.33 | -1.21 ± 0.4 |
| UUUUAGCAAUAUUACGGCUU | -1.98 ± 0.17 | -0.826 ± 0.2 |
| UUUUAGCAAUAUUACGGGAA | -1.16 ± 0.16 | -1.19 ± 0.13 |
| UUUUAGCAAUAUUACGGGGG | -3.07 ± 0.41 | -2.25 ± 0.31 |
| UUUUAGCAAUAUUACGGUAA | -1.94 ± 0.2 | -0.884 ± 0.14 |
| UUUUAGCAAUAUUACGUCCA | -1.59 ± 0.22 | -0.545 ± 0.19 |
| UUUUAGCAAUAUUACGUUUG | -1.6 ± 0.082 | -0.497 ± 0.12 |
| UUUUAGCAAUAUUACGUUUU | -3.49 ± 0.21 | -2.22 ± 0.27 |
